Results as given in the supplement of paper PMC9170038.

Experiments:
MS2 coat protein [1] = assay: apparent KD of MS2 coat protein; designed switch direction (-1 OFF switch, 1 ON switch): 1; higher = weaker reporter binding
Method in brief: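 Apparent KD, taken as the median over clusters for each design, was obtained by curve-fitting normalised cluster fluorescence. Designed RNA switches had been transcribed on Illumina chips by stalled E. coli RNA polymerase and titrated with SNAP-549-labelled MS2 coat protein, doubling from 0.7 or 1.5 nM to 3 µM.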

MS2 coat protein [2] = assay: apparent KD of MS2 coat protein; higher = weaker reporter binding; details: Eterna round: R107
Method in brief: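 Illumina sequencing clusters were used for on-chip transcription of designed RNA switches. Titration with SNAP-549-labelled MS2 coat protein followed, in twofold steps from 0.7 or 1.5 nM to 3 µM in 100 mM Tris-HCl pH 7.5, 80 mM KCl, 4 mM MgCl2, without or with constant ligand. Apparent KD is each design's median of fits to normalised cluster binding curves.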

[3] = Eterna round: R95, input ligand: microRNA oligo, concentration not stated
[4] = Eterna round: R95, input ligand: FMN 200 uM
[5] = Eterna round: R95, input ligand: none
[6] = input ligand: theophylline 20 uM
[7] = input ligand: theophylline 2 mM
[8] = input ligand: tryptophan 2.4 mM

Sequence	apparent KD of MS2 coat protein (MS2 coat protein [1]; [3]) [nM]	apparent KD of MS2 coat protein (MS2 coat protein [1]; [4]) [nM]	apparent KD of MS2 coat protein (MS2 coat protein [1]; [5]) [nM]	apparent KD of MS2 coat protein (MS2 coat protein [1]; input ligand: FMN 200 uM) [nM]	apparent KD of MS2 coat protein (MS2 coat protein [1]; input ligand: microRNA oligo, concentration not stated) [nM]	apparent KD of MS2 coat protein (MS2 coat protein [1]; input ligand: none) [nM]	apparent KD of MS2 coat protein (MS2 coat protein [2]; input ligand: arginine 13.2 mM) [nM]	apparent KD of MS2 coat protein (MS2 coat protein [2]; input ligand: none) [nM]	apparent KD of MS2 coat protein (MS2 coat protein [2]; [6]) [nM]	apparent KD of MS2 coat protein (MS2 coat protein [2]; [7]) [nM]	apparent KD of MS2 coat protein (MS2 coat protein [2]; [8]) [nM]
GCUUCACAUGAGGAUCACCCAUGUCUUCGGAGUCGAGGAUAUGGUAACUGUAAACAGUUGCCAGAAGGCGAGGAGC [SS1 - Son of Teenbexe v9] (puzzle: Same State 1)	54.6										
AGCGAAAUAAGCAAGGAUAUGUAAUUUGGCACAUGAGGAUCACCCAUGUCAAUCCAUUUUUUGGAACAGAAGGUGCAUUUUUUUU [ak third] (puzzle: Same State 2)	100	69	102								
GGUCCCUACGCACAGGAUAUUCUUUUGGCAACAUGAGGAUCACCCAUGUGUGCCGAUCAUGGUUAGAAGAAGGGUGGUAGGGACG [Cesovexe] (puzzle: Same State 2)	11.4	12	16.8								
GUACUACAUGAGGAUCACCCAUGUACAAAUGUACGAGGAUAUGCAUGGACGAAAGUUGGUGCAGAAGGCGUAGUAC [Pin2Pin #4] (puzzle: Same State 1)	27.1										
UUAAUGAUGAUAGGAUAUACAUGAGGAAUUCUCGUAGAAGGAUCAUGACAUGAGGAUCACCCAUGUAUCGCUCGAUAGAGCGUA [Mat - Same State NG 1 - JL mod - D34] (Eterna round: R96, puzzle: Same State NG 1)				844	142	158					
AGUAGACACGCGGCCGCCACUUGAGGAUCACCCAGGUGGUGUGUACUUGAAACAAGUGCACAAUCAAGGACCGGGCGUGUCUACA [Omei Tryp B SS D v1]							12.6	13.5	17.4	15.1	83.7
UGGUACAUGAGGAUCACCCAUGUUCCAGAUACCAGCGUCCCGGUGCGCCCUUGGCAGCUGGUGGUACAUGAGGAUCACCCAUGUG [Exclusion Theophylline A GF14]							35.2	40.2	50	61.2	44.9
GGUUGGUAUAUAUAUAUAUUGAUUACUGAAGGAGCGGGAAAUAACCCAGGUAGGUCGCAGAGAUCCACAUGAGGAUCACCCAUGU [!0.G]							24.3	45.1	60.3	56.8	39.1
UCUCGGUCUUUCUUUCUCCGAGAAUAUGAUACCAGUUAGUUUUAUGGCCCUUGGCAGCAUAGAACAUGAGGAUCACCCAUGUGUU [SSThA NP+V+V2 #9 +-Same Structure]							48.1		114		96.5
GUUAUGGACCUGGAUACCAGCUGGUACAAGGGCGGUCUACAUGAGGAUCACCCAUGUGUCAGCCCUUGGCAGCCAGCAACCCACU [Cele]							10.6		16.7		9.57
ACGGAUCGGAAACGAUCCGCGGCGAGGGUGCGAGGACCGGUACGGCCGCCACUCGGGUAACAUGAGGAUCACCCAUGUCCGAAGA [ETA NuPACK+Vienna+Vienna2 #10 Same Structure]							35.8	55	60.3	106	209
ACAUGAGGAUCACCCAUGUGAAGGCACGAUACCAGCUGAUCCCGUGGCCCUUGGCAGCGUCCGGUGUGGUCCGGCGGAUGGGACG [xwxmullin]							19.1	25	23.3	30.9	26.4
ACCUGUACGAAAAGUGCAGGACAUGGUAAACGAGGACCGGUACGGCCGCCACUCGAAGAAAACAAGUGGAUCACCCUUGUCCAUG [TrypAS 4 #AlternativeMS2 #Zipper #StaticStem]							292	622	641	2090	1350
UAUAUUGUGAUGGAUACCAGCAGAGAAAACGUUUAUCCUAACAUGAGGAUCACCCAUGUAUGCCCUUGGCAGCUGUUGUGAUAUA [8.N]							47.6		73.9		61.1
AGCCGGAUUACGGCCGCCACUGUAGACGUGACGAAAGUCGCGUCAACAUGAGGAUCACCCAUGUACAGGACCGGGUGGUCCGGCA [Omei Trp B SS A v3]							7.09	9.61	11.2	8.87	8.97
GAAACGUAGGUGGAGCGGUGAAAUGGCGAUACCAGCGUGGAAACAUGCCCUUGGCAGCGUUAGAACAUGAGGAUCACCCAUGUUU [#22 Exclusion-TheophyllineA]							12.9		15.4		14.9
UAUCCACAUGAGGAUCACCCAUGUAAGGAAGGAGCGGUGAAUGCACCAGGUAGGUCGCCUUGCUGAGGACUGUCGGUGGAUUCGU [Exclusion - Arginine A (Freestyle 22)]							26.8	32.8	43.2	39.5	32
AGCACUGUGACGGCCGCCACUACAUAAGAUGGGUGGUCAGGUUCAUUACAUGAGGAUCACCCAUGUAGGACCGGGUCUCAGUGCA [Omei Trp Exc B A v10]							7.97	9.29	16.5	10.9	7.71

Sequence	apparent KD of MS2 coat protein (MS2 coat protein [1]; [3]) [nM]	apparent KD of MS2 coat protein (MS2 coat protein [1]; [4]) [nM]	apparent KD of MS2 coat protein (MS2 coat protein [1]; [5]) [nM]	apparent KD of MS2 coat protein (MS2 coat protein [1]; input ligand: FMN 200 uM) [nM]	apparent KD of MS2 coat protein (MS2 coat protein [1]; input ligand: microRNA oligo, concentration not stated) [nM]	apparent KD of MS2 coat protein (MS2 coat protein [1]; input ligand: none) [nM]	apparent KD of MS2 coat protein (MS2 coat protein [2]; input ligand: arginine 13.2 mM) [nM]	apparent KD of MS2 coat protein (MS2 coat protein [2]; input ligand: none) [nM]	apparent KD of MS2 coat protein (MS2 coat protein [2]; [6]) [nM]	apparent KD of MS2 coat protein (MS2 coat protein [2]; [7]) [nM]	apparent KD of MS2 coat protein (MS2 coat protein [2]; [8]) [nM]
UAUCGUCAGACGGCCGCCACUAGAACAUGAGGAUCACCCAUGUAGUGGCCGGAUACCUCAAUAACUAGGACCGGGUCUGACGAAU [(Trp1)-(Ms2)-(T)'-(M)'-(Trp2)_Design17]							36.6	52.2	96.5	54	32.7
GGGCGUGUGGUGCGGCGUGCUCCGCUCCGUCGAGGACCGGUACGGCCGCCACUCGACAUGAGGAUCACCCAUGUGCGAGCGCGCG [#1 Exclusion - Tryptophan A Attempt #9 (HarryS)]							16.3	9.81	10.5	14.4	24.4
GGACUAACCAGAAGGAGCGACACGCAGAAACUGCUAAUUCCUCCGCACGAGGAUCACCCGUGUCAGGUAGGUCGCUGGUUAGUCG [ArgBX 28]							20.3	20.5	28.5	24.3	23.3
UGCAUGAGGAUCGCCCGUGUCGAGCCGGUGCGAGGACCGGUACGGCCGCCACUCGAGACAUGAGGAUCACCCAUGUUGUGCGUGA [Exclusion Tryptophan A GF24]							27.9		79.5	56.4	
UUAUGCAGGUCGGCCGCCACUACACACAUGAGGAUCACCCAUGUAGUUACUGGGUGAAGUGGCAGUAGGACCGGGACCUGCAUAC [Brourdmod06]							55.4		396	877	
AACAGUAUUAUAGAUACCAGCAGGUCAUAAGACAUGAGGAUCACCCAUGUGAAUGAGGUAUGCCCUUGGCAGCUAUGAGGUCCUC [theeternabot_sameState_MS2_Theo_B_18]							113		185		126
GAGCUGAUGUAGAGAUUAUAUAAAAGAGAUACCAGUACAGAAAUGUACCCUUGGCAGCUCAACUUUACAUGAGGAUCACCCAUGU [Ex Theophylline A 19]							15.4		15.8		13.9
AACAUGAGGAUCACCCAUGUAUGUUCCGAAGGAGCGCCACAUGAGGCAGGUAGGUCGCGGGUACAUGAGGAUCACCCAUGUGUCA [Exclusion Arginine A 3]							56.5	113	170	128	174
AUACAUGAGGAUCACCCAUGUAUAGUUGAAGGAGCGACCGGUGGGUCAGGUAGGUCGCAGCGCAUGGCGUCCACGCGUGUAUGCC [#1 Exclusion - Arginine A Attempt #30 (Inspired by Pi)]							10.7	10.7	16.4	11.3	11.1
GCCGGACUUUCGGCCGCCACUGAGAGAGUCGUGUGAACAUGAGGAUCACCCAUGUAAUAUAUAUACAGGACCGGGAGGGUUGGGC [4.R]							10.5	13.7	15.1	14.4	12.4
UACAUGAGGAUCACCCAUGUGUAGAGGGAUACCAGUGACAGUAAGCGCCCUUGGCAGCCCGUGAACAAUGGGUGAGCAAAAUAGU [#17 Exclusion-TheophyllineA]							41.4	19.4	233	25.6	44.7
AUGAAGCUAAGAGAUACCAGUGACCACAGAUACAUGAGGAUCACCCAUGUCUCAAAUUGUCACCCUUGGCAGCUCACUAUCGAAG [theeternabot_sameState_MS2_Theo_B_29]							11.2		11.9		10.2
AAGGUGAUCCGUGAUACCAGCUCAACAUGAGGAUCACCCAUGUACGGGACGAAAGUCCCGGGCCCUUGGCAGCACGGUUGCCAAG [SSTheo B #20]							53.2	89.8	239	93.7	109
GGAUUCAACUCGGCCGCCACUGGUGAUCCUAAUGUACAUGAGGAUCACCCAUGUACAUGAGAAUAUAGGACCGGGAGAUAAGUUA [Tryptophan B V3 (+3U)]							23.2		33.5	32.2	
AAUUUGUCGGGUGAUACCAGCCUCGGCGCGUCUCGCGCUGAACAUGAGGAUCACCCAUGUGGCCCUUGGCAGCACAUGACAAAUC [Raracere]							367		557		677
ACGCUGAUUGAUUACAAUCAGCGAAAAGAUACCAGUGGGUAAUCCCACCCUUGGCAGCUUAAAUCUGAGGAUCACCCAGGUGGUA [TheoAS 19 #MS2Right #BothOrNeither #AlternativeMS2]							153	253	382	376	728
GCCAUCGGCGGAAGCCGAUGGGAUACAGAAGGAGCGUGGAUUAACACAGGUAGGUCGCUGGACAUGAGGAUCACCCAUGUAAUAG [SSAA #8]							17.4	26.2	27.2	32.4	21.7
